T1: B7H3 (CD276) (human, UniProt Q5ZPR3 29-534)
T1 construct: whole, on cells
T1 sequence (looked up): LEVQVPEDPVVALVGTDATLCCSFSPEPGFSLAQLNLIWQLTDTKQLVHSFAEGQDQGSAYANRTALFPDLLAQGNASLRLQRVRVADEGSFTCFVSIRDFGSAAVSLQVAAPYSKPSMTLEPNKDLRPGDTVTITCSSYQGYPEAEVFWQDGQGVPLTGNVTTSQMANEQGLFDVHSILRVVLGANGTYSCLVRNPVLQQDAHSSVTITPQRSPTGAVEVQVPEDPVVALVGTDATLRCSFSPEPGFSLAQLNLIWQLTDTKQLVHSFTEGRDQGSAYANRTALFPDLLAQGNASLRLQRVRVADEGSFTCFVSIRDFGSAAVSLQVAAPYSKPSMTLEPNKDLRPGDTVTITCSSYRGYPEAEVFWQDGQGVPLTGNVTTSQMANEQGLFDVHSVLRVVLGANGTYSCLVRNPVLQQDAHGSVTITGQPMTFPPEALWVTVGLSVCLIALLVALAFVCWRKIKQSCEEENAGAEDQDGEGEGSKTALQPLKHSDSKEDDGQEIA

B1: cx5952 (bispecific antibody)
chain 1: EVQLVESGGGEVQPGGSLRLSCAASGFSFSSNVMMWVRQAPGKGLEWVSTIYSSGTGTFYAESVKGRFTISRDNAKNTLYLQMSSLRPEDTAVYYCATSGPVRGWGPRSQGTLVTVKPPGGGGDKTHTCPPCPAPGGPSVFLFPPKPKDTLMISRTPEVTCVVVDVSHEDPEVKFNWYVDGVEVHNAKTKPREEQYNSTYRVVSVLTVLHQDWLNGKEYKCKVSNKALPAPIEKTISKAKGQPREPQVYTLPPCRDELTKNQVSLWCLVKGFYPSDIAVEWESNGQPENNYKTTPPVLDSDGSFFLYSKLTVDKSRWQQGNVFSCSVMHEALHNHYTQKSLSLSPGGGGGGSGGGGGSGGGGGSEVQLVESGGGLVQPGGSLRLSCAASGFTFNTYAMNWVRQAPGKCLEWVARIRSKYNNYATYYADSVKGRFTISRDDAKNTLYLQMSSLRAEDTAVYYCVRHGNFGNSYVSWFAYWGQGTLVTVKPGGGGEVQLVESGGGEVQPGGSLRLSCAASGFTFSSYHMSWFRQAPGKQRELVATSHHGGTTNYAGSVKGRFTISRDNAKNTVYLQMNTLRAEDTAVYYCKADHGYQGRGYWGQGTLVTVKP
chain 2: DKTHTCPPCPAPGGPSVFLFPPKPKDTLMISRTPEVTCVVVDVSHEDPEVKFNWYVDGVEVHNAKTKPREEQYNSTYRVVSVLTVLHQDWLNGKEYKCKVSNKALPAPIEKTISKAKGQPREPQVCTLPPSRDELTKNQVSLSCAVKGFYPSDIAVEWESNGQPENNYKTTPPVLDSDGSFFLVSKLTVDKSRWQQGNVFSCSVMHEALHNRYTQKSLSLSPGGGGGGSGGGGGSGGGGGSQAVVTQEPSLTVSPGGTVTLTCGSSTGAVTTSNYANWVQQKPGQAFRGLIGGTNKRAPGVPARFSGSLLGGKAALTISGAQPEDEADYYCALWYSNHWVFGCGTKLEIK
notes: Heterodimer of chain 1 and chain 2; anti-CD3 Fv disulfide-stabilized (VH G44C / VL G100C); also called B7H3-targeting constrained CD3 engaging construct; sdAb-Fc-dsFV-sdAb
B2: cx6079 (bispecific antibody)
chain 1: EVQLVESGGGEVQPGGSLRLSCAASGFSFSSNVMMWVRQAPGKGLEWVSTIYSSGTGTFYAESVKGRFTISRDNAKNTLYLQMSSLRPEDTAVYYCATSGPVRGWGPRSQGTLVTVKPPGGGGDKTHTCPPCPAPPVAGPSVFLFPPKPKDTLMISRTPEVTCVVVDVKHEDPEVKFNWYVDGVEVHNAKTKPREEEYNSTYRVVSVLTVLHQDWLNGKEYKCKVSNKALPAPIEKTISKAKGQPREPQVYTLPPSREEMTKNQVSLTCDVSGFYPSDIAVEWESDGQPENNYKTTPPVLDSDGSFFLYSKLTVDKSRWEQGDVFSCSVMHEALHNHYTQKSLSLSPGKGGGGSGGGGSGGGGSEVQLVESGGGLVQPGGSLRLSCAASGFTFSTYAMNWVRQAPGKGLEWVGRIRSKYNNYATYYADSVKGRFTISRDDSKNTLYLQMNSLRAEDTAVYYCVRHGNFGDSYVSWFAYWGQGTLVTVSS
chain 2: EVQLVESGGGEVQPGGSLRLSCAASGFSFSSNVMMWVRQAPGKGLEWVSTIYSSGTGTFYAESVKGRFTISRDNAKNTLYLQMSSLRPEDTAVYYCATSGPVRGWGPRSQGTLVTVKPPGGGGDKTHTCPPCPAPPVAGPSVFLFPPKPKDTLMISRTPEVTCVVVDVKHEDPEVKFNWYVDGVEVHNAKTKPREEQYNSTYRVVSVLTVLHQDWLNGKEYKCKVSNKALPAPIEKTISKAKGQPREPQVYTLPPSREQMTKNQVKLTCLVKGFYPSDIAVEWESNGQPENNYKTTPPVLDSDGSFFLYSKLTVDKSRWQQGNVFSCSVMHEALHNHYTQKSLSLSPGKGGGGSGGGGSGGGGSQAVVTQEPSLTVSPGGTVTLTCGSSTGAVTTSNYANWVQQKPGKSPRGLIGGTNKRAPGVPARFSGSLLGGKAALTISGAQPEDEADYYCALWYSNHWVFGGGTKLTVL
notes: Heterodimer of chain 1 and chain 2; anti-CD3 Fv not disulfide-stabilized; two identical B7H3 sdAbs, both N-terminal to the Fc; also called B7H3-targeting constrained CD3 engaging construct; sdAb-Fc-FV

Columns and labels:
[1] = target: T2, CD3 on the surface of primary T cells (human, UniProt P07766 23-207); experiment: flow cytometry on isolated T cells
T2 construct: whole, on cells; CD3 is a multimeric complex (ε, γ, δ, ζ chains) with the TCR; In the reporter assays CD3 stood on Jurkat cells; also called CD3ε
T2 sequence (P07766 23-207): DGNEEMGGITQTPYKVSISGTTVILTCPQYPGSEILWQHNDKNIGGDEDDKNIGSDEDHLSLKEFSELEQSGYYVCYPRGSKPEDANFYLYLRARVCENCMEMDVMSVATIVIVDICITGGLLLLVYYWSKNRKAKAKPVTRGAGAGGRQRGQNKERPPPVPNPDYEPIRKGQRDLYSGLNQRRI
Experimental: (§1) Binding of exemplary multispecific constructs containing an antigen-binding domain directed against B7H3 were assessed for binding to B7H3 positive A375 tumor cells or primary T-cells. The constructs were generated containing antigen-binding domain(s) that were either sdAbs or a FABs, and that were positioned either only N-terminal to the Fc or both N-terminal to the Fc and C-terminal to the anti-CD3 binding domain (see FIGS. 3A and 3C and Table E1.1). Among the various formats of constructs tested included: sdAb-Fc-dsFV-sdAb (cx3072, cx5952) sdAb-Fc-FV (cx6079), sdAb-Fc-dsFV (cs6080, cx6081), MAB-FV (cx5067) and MAB-dsFV (cx6083, cx6084), where the FV represents the anti-CD3 binding domain composed of VH and VL domain pairs and “ds” notes disulfide stabilized via an engineered interdomain disulfide bond.
(§2) Binding was assessed as described above via flow cytometry using a fluorophore-conjugated anti-human Fc secondary antibody. cx3072 bound to A375 cells with high affinity (FIG. 6A) but not to isolated T-cells (FIG. 6B). […]

B7H3 (CD276) = target: T1, B7H3 (CD276); experiment: flow cytometry on A375 cells
Experimental: as §1, §2

| Binder | binding result [1] | binding result (B7H3 (CD276)) |
| --- | --- | --- |
| B1 | no binding | – |
| B2 | no binding | binds |
